Test results: patent US20150072922A1, “RNASE 7 ANTIMICROBIAL PEPTIDES” (THE RESEARCH INSTITUTE AT NATIONWIDE CHILDREN'S HOSPITAL, priority 2012, published 2015)
“Also recorded” adds a separate entry of the source.

B1: RNase7: recombinant full-length human Ribonuclease 7, amino acids 1-128 (SEQ ID NO: 1), N-terminal His tag (protein, listed as Homo sapiens)
chain: KPKGMTSSQWFKIQHMQPSPQACNSAMKNINKHTKRCKDLNTFLHEPFSSVAATCQTPKIACKNGDKNCHQSHGPVSLTMCKLTSGKYPNCRYKEKRQNKSYVVACKPPQKKDSQQFHLVPVHLDRVL
modifications: N-terminal His tag
B2: F:1-97: recombinant N-terminal RNase 7 fragment, amino acids 1 to 97 (SEQ ID NO: 5), N-terminal His tag (protein, listed as Homo sapiens)
chain: KPKGMTSSQWFKIQHMQPSPQACNSAMKNINKHTKRCKDLNTFLHEPFSSVAATCQTPKIACKNGDKNCHQSHGPVSLTMCKLTSGKYPNCRYKEKR
modifications: N-terminal His tag

Assays:
E. coli (UTI-89) = experiment: Live/Dead BacLight bacterial viability assay (confocal imaging); format: cell-based, Escherichia coli; conditions: 1 μM
Description: (§1) Bacterial viability assays were performed using a Live/Dead BacLight™ bacterial viability kit (Invitrogen). Uropathogenic E. coli (UTI-89) and S. Saprophyticus (ATCC 15305) were grown at 37° C. to the mid-log phase, centrifuged at 5000 rpm for 5 min, and resuspended in water with an OD=0.2. Bacteria were stained using a 1:1 mixture of a green-fluorescent STY®9 dye and a red-fluorescent propidium iodide dye as provided in the Live/Dead BacLight™ bacterial viability kit. SYTO®9 labels both live and dead bacteria. Propidium iodide penetrates only bacteria with damaged membranes. Consequently, live bacteria with intact membranes fluoresce green, while dead bacteria with damaged membranes fluoresce red. […]. 50 uL of stained uropathogenic bacteria was mixed with recombinant RNase 7 or RNase 7 fragments to achieve a final concentration of 3 uM and 1 uM. 10 uL of this mixture was added to poly-1-lysine coated microscope slides (Polysciences, Inc, Warrington, Pa., USA) and confocal images of the bacteria were obtained using a Zeiss LSM 700 confocal laser scanning microscope (Carl Zeiss LLC, Thornwood, N.Y., USA). SYTO®9 was excited using an argon laser (448-500 nm emission collected) and propidium iodide was excited using an orange diode (555-600 nm emission collected). Samples were imaged in triplicate.
(§2) For images of intact versus disrupted membranes of dying/dead cells, the Live/Dead BacLight™ bacterial viability kit (Invitrogen) was used. E. coli and S. saprophyticus were grown at 37° C. to the mid-log phase, centrifuged at 5000 rpm for 5 min, and resuspended in water to an OD600 of 0.2. Bacteria were incubated in a 1:1 mixture of Live/Dead BacLight™ bacterial viability assay. A bacterial aliquot of 50 μL was mixed with recombinant RNase 7 or recombinant fragments to achieve a final concentration of 1 μM. Ten microliters of this mixture was added to poly-1-lysine coated microscope slides (Polysciences, Inc, Warrington, Pa., USA), and images were obtained in triplicate using a Zeiss LSM 710 confocal laser scanning microscope (Carl Zeiss LLC, Thornwood, N.Y., USA).

Proteus mirabilis = experiment: Urinary condition functional assay (OD600 growth curves); format: cell-based; conditions: for activity on Proteus mirabilis growth at various CaCl2 titers: 2 μM peptide, 1.25, 7.5, 16.25 mM CaCl2, OD600 for 10 hours, FIG. 11; for activity on Proteus mirabilis growth at various NaCl titers: 2 μM peptide, 50, 150, 500 mM NaCl, OD600 for 10 hours, FIG. 10; for activity on Proteus mirabilis growth at various pH levels: 2 μM peptide, pH 5, 7, 9, OD600 for 10 hours, FIG. 9
Description: (§3) Because the urinary environment can have significant variation in salt concentration, ionic composition, and pH, an antimicrobial/bacteriostatic assay was performed to evaluate if pH, calcium, or ionic strength affects the activity of full-length RNase7 or its fragments. The highest activity fragment F:1-97 and lowest activity fragment F:72-128 for these experiments were chosen. Bacteria were inoculated in 1% peptone water and growth to log phase with OD600=0.5. Bacteria were diluted to 1:10 and 1 μl added to 100 μl of 1% peptone water with various pH, CaCl2 or NaCl concentrations that correspond to a physiologic range present in the urine in a 96-well flat bottom plate (Thermo Scientific, Nunc, Worcester, Mass.). To each well, 2 μM of RNase7 or its fragments were added.
(§4) Bacterial growth was monitored using an Absorbance microplate reader (BioTek Instruments, Winooski, Vt.) at a final volume of 110 μl. The turbidity of the culture was measured and recorded at t=0 and every 20 min thereafter for 10 hours using the absorbance at 600 nm (OD600). The values of OD600 values were plotted against times to generate growth curves.

[1] = system: Proteus mirabilis (ATCC 7002); experiment: Antimicrobial kill (microdilution) assay, MIC/MBC by CFU count; format: cell-based; conditions: for P. mirabilis MIC: lowest concentration that inhibits the growth of 90% of the inoculation; for P. mirabilis MIC / P. mirabilis MBC: 3 hours, 0.1×PBS; for P. mirabilis MBC: minimum bactericidal concentration
Description: Uropathogenic Escherichia coli (UTI89) was grown in Luria broth (LB) medium and plated on LB-agar. Uropathogenic Staphylococcus saprophyticus (ATCC 15305) was grown in LB and plated on Trypticase Soy Agar with 5% sheep blood (Fisher Scientific, Pittsburgh, Pa., USA). Uropathogenic Proteus mirabilis (ATCC 7002) was grown in LB and plated on MacConkey II Agar (Fisher Scientific, Pittsburgh, Pa., USA). These organisms were chosen as the primary organisms that account for a majority of Gram-negative and Gram-positive urinary tract infections (UTI). Anti-RNase 7 antibody was generated in rabbit with recombinant human RNase 7 (Biomatik, Wilmington, Del., USA)
(§5) Antimicrobial activities of the recombinant peptides were estimated with a microdilution assay. Briefly, the test bacteria (10^4 CFUs) were incubated with various concentrations of RNase 7 and each fragment in 50 ul 0.1×PBS buffer for 3 hours at 37° C. After incubation on Agar plates overnight at 37° C., the number of colony-forming units (CFUs) at each peptide concentration was determined. Using untreated bacterial aliquots as baseline, the minimum inhibition concentration (MIC) was defined as the lowest concentration that inhibits the growth of 90% of the inoculation, and the minimum bactericidal concentration (MBC) was defined as the lowest concentration at which less than 99.99% of the initial inoculum is viable.

E. coli = experiment: Urinary condition functional assay (OD600 growth curves); format: cell-based, Escherichia coli; conditions: for activity on E. coli growth at various pH levels / activity on E. coli growth at various CaCl2 titers: 2 μM peptide; for activity on E. coli growth at various pH levels: 1% peptone water, pH 5, 7, 9, OD600 for 10 hours, FIG. 3; for activity on E. coli growth at various NaCl titers: 2 μM peptide, 50, 150, 500 mM NaCl, FIG. 4; for activity on E. coli growth at various NaCl titers / activity on E. coli growth at various CaCl2 titers: OD600 for 10 hours; for activity on E. coli growth at various CaCl2 titers: CaCl2 up to 16.25 mM, FIG. 5
Description: as §3, §4

S. saprophyticus = experiment: as above; format: cell-based, Staphylococcus saprophyticus; conditions: for activity on S. saprophyticus growth at various NaCl titers: 2 μM peptide, 50, 150, 500 mM NaCl, FIG. 7; for activity on S. saprophyticus growth at various NaCl titers / activity on S. saprophyticus growth at various CaCl2 titers: OD600 for 10 hours; for activity on S. saprophyticus growth at various CaCl2 titers / activity on S. saprophyticus growth at various pH levels: 2 μM peptide; for activity on S. saprophyticus growth at various CaCl2 titers: CaCl2 up to 16.25 mM, FIG. 8; for activity on S. saprophyticus growth at various pH levels: pH 5, 7, 9, OD600 for 10 hours, FIG. 6
Description: as §3, §4

[2] = system: Staphylococcus saprophyticus (ATCC 15305); experiment: Antimicrobial kill (microdilution) assay, MIC/MBC by CFU count; format: cell-based; conditions: for S. saprophyticus MIC: lowest concentration that inhibits the growth of 90% of the inoculation; for S. saprophyticus MIC / S. saprophyticus MBC: 3 hours, 0.1×PBS; for S. saprophyticus MBC: minimum bactericidal concentration; for antimicrobial activity against S. saprophyticus (in words): MIC/MBC based, mostly compared to full-length RNase 7
Description: (§6) The antimicrobial activity of RNase 7 and its fragments was estimated using a microdilution assay. Briefly, test bacteria (10^5) were incubated with several concentrations of RNase 7 and each fragment in 50 μl 0.1×PBS buffer for 3 hours in a 37° C. incubator. Each reaction was plated on the appropriate medium and grew overnight at 37° C. The antimicrobial activity was determined by the number of colony-forming units (CFUs) the following day. The minimum inhibition concentration (MIC) is defined as the lowest concentration that inhibits the growth of 90% of the inoculation and the minimum bactericidal concentration (MB C) is defined as the lowest concentration at which less than 99.99% of the initial inoculum is viable.
as §5

Escherichia coli (UTI89) = experiment: as above; format: cell-based; conditions: for E. coli MIC: lowest concentration that inhibits the growth of 90% of the inoculation; for E. coli MIC / E. coli MBC: 3 hours, 0.1×PBS; for E. coli MBC: minimum bactericidal concentration; for antimicrobial activity against E. coli (in words): MIC/MBC based, mostly compared to full-length RNase 7
Description: as §6, §5

[3] = system: S. Saprophyticus (ATCC 15305); experiment: Live/Dead BacLight bacterial viability assay (confocal imaging); format: cell-based, Staphylococcus saprophyticus; conditions: 1 μM
Description: as §1, §2

[4] = compared to full-length RNase 7

Row | Molecule | killing of E. coli in Bacterial Viability Assay (E. coli (UTI-89); 30 min) | killing of E. coli in Bacterial Viability Assay (E. coli (UTI-89); 3 hours) | activity on Proteus mirabilis growth at various CaCl2 titers (Proteus mirabilis) | activity on Proteus mirabilis growth at various NaCl titers (Proteus mirabilis) | activity on Proteus mirabilis growth at various pH levels (Proteus mirabilis) | P. mirabilis MIC [1] | P. mirabilis MBC [1] | activity on E. coli growth at various pH levels (E. coli) | activity on E. coli growth at various NaCl titers (E. coli) | activity on E. coli growth at various CaCl2 titers (E. coli) | activity on S. saprophyticus growth at various NaCl titers (S. saprophyticus) | activity on S. saprophyticus growth at various CaCl2 titers (S. saprophyticus) | activity on S. saprophyticus growth at various pH levels (S. saprophyticus) | S. saprophyticus MIC [2] [µM] | S. saprophyticus MBC [2] | E. coli MIC (Escherichia coli (UTI89)) [µM] | E. coli MBC (Escherichia coli (UTI89)) [µM] | killing of S. saprophyticus in Bacterial Viability Assay ([3]; 30 min) | killing of S. saprophyticus in Bacterial Viability Assay ([3]; 3 hours) | other results
1 | B1 | did not | completely dead | significantly reduced full-length RNase 7 activity against all uropathogens; also recorded: activity is significantly diminished at higher CaCl2 concentrations but relatively unaffected at 1.25 mM concentration | diminished significantly with additional of any NaCl titer; also recorded: activity markedly diminished at all salt concentrations | maintained high activity at pH 5; also recorded: activity is potent at pH 5 | .88 µM | .88 µM | pH 9 (dotted line) decreases full-length RNase 7 activity; also recorded: activity was optimal at pH 7 against E. coli | activity was not different at 50 and 150 mM NaCl | activity is inversely related to CaCl2 concentration; also recorded: significantly reduced full-length RNase 7 activity against all uropathogens | diminished in direct proportion to NaCl concentration; also recorded: activity inversely related to NaCl concentration | significantly reduced full-length RNase 7 activity against all uropathogens; also recorded: activity is inversely related to CaCl2 concentration | activity is potent at all pH; also recorded: maintained high activity at pH 5 | 0.22 | .44 µM | 0.26 | 0.53 | did not | completely dead | MIC for P. mirabilis [1]: 0.88 µM; antimicrobial activity against P. mirabilis (in words) ([1]; MIC/MBC based, mostly compared to full-length RNase 7): MIC and MBC values that were identical; MIC for S. saprophyticus [2]: 0.22 µM; MIC against E. coli (Escherichia coli (UTI89)): 0.26 µM; MIC for E. coli (Escherichia coli (UTI89); E. coli UTI89): 0.26 LM
2 | B2 | killed most of the E. coli and S. saprophyticus | completely dead | unchanged activity under all conditions against P. mirabilis; also recorded: activity is not significantly altered by CaCl2 concentrations | activity pattern comparable to full-length peptide at various NaCl concentrations | optimal activity at pH 5 (gray squares), but less compared to full length | .44 µM | .88 µM | activity pattern comparable to full-length peptide at various pHs | activity pattern comparable to full-length peptide at various NaCl concentrations | activity pattern comparable to full-length peptide at various CaCl2 concentrations; also recorded: sensitive to CaCl2 concentrations | diminished in direct proportion to NaCl concentration; also recorded: activity pattern comparable to full-length peptide at various NaCl concentrations | sensitive to CaCl2 concentrations; also recorded: activity is inversely related to CaCl2 concentration but more pronounced compared to full length RNase 7 | optimal activity at pH 5 | 0.04 | 0.08 µM | 0.07 | 0.14 | killed most of the E. coli and S. saprophyticus | completely dead | antimicrobial activity against S. saprophyticus (in words) [2]: decreased relative to the full-length peptide; antimicrobial activity against S. saprophyticus (in words) ([2]; listed as 1-97): increased activity against both strains; MICs and MBCs fold lower than full length protein, S. saprophyticus [2, 4]: at least 4 fold; antimicrobial activity against E. coli (in words) (Escherichia coli (UTI89)): decreased relative to the full-length peptide; antimicrobial activity against E. coli (in words) (Escherichia coli (UTI89); listed as 1-97): strongest activity; also recorded: increased activity against both strains; MICs and MBCs fold lower than full length protein, E. coli (Escherichia coli (UTI89); [4]): at least 4 fold
